For orientation: Kd means the equilibrium constant for the complex coming apart.

This note sets out measurements from patent US20030068675, “Position dependent recognition of GNN nucleotide triplets by zinc fingers” (published 2003).

Where a chain is given by its changes, count along the chain named.

Common to all, as to test: EMSA
Common to all, as to settings: tags: MBP fusion
In general terms: A gel shift assay detects complexes by their altered migration in electrophoresis.

For data set [1], the target named is ZFP SBS#1086 (synthetic). The gist of the method:
(§1)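 Purified ZFP was titrated against labeled double-stranded target (1 nM or lower, at least 10-fold below expected Kd) carrying the natural binding site with flanks. Binding buffer was 10 mM Tris pH 7.5, 100 mM KCl, 1 mM MgCl2, 0.1 mM ZnCl2, 5 mM DTT, 10% glycerol, 0.02% BSA, with equilibration for at least 45 min. Bound and free target were separated on a 10% polyacrylamide gel.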

The target of data set [2] is T1, ZFP SBS#1083 (synthetic).
T1 chain: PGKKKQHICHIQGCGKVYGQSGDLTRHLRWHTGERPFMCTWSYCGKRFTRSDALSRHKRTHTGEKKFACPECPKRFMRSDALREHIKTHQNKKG
The gist of the method:
as §1

Data set [3] addresses T2, ZFP SBS#1118 (synthetic).
T2 chain: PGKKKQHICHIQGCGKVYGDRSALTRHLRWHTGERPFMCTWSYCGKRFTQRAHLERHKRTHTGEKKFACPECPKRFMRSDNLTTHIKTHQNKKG
The gist of the method:
as §1

The target of data set [4] is T3, ZFP SBS#1089 (synthetic).
T3 chain: T1 chain with G22S, T25R, A53N, S55A, R78D, S79R, D80S, A81N, R83T, E84R
The gist of the method: as §1

Data set [5] deals with T4, ZFP SBS#1094 (synthetic).
T4 chain: T1 chain with Q20T, D23H, T25V, R50Q, D52S, S55T, A81E, L82R, R83K, E84R
Summed up: as §1

In data set [6] the target is T5, ZFP SBS#1119 (synthetic, UniProt P08047).
T5 chain: T1 chain with Q20T, D23H, T25V, A53N, S55A, A81H, R83T, E84T
The gist of the method:
as §1

Data set [7] deals with T6, ZFP SBS#469 (synthetic).
T6 chain: T2 chain with T25A, Q50R, R51S, A52D, H53N, E55A, R78Q, D80G, T84R
The gist of the method:
as §1

Data set [8] has as its target ZFP SBS#1115 (synthetic). Summed up: as §1
The target in data set [9] is T7, ZFP SBS#1114 (synthetic).
T7 chain: T1 chain with G22S, D23N, T25A, R50T, D52G, A53S, S55T, A81N
The gist of the method:
as §1

Data set [10] has as its target ZFP SBS#1105 (synthetic). Summed up: as §1
Data set [11] deals with ZFP SBS#1106 (synthetic). Summed up:
as §1

The target in data set [12] is T8, ZFP SBS#1097 (synthetic).
T8 chain: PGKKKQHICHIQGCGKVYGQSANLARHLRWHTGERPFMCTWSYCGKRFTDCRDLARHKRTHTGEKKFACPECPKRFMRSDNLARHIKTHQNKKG
The gist of the method: as §1

Data set [13] concerns the target T9, ZFP SBS#1084 (synthetic).
T9 chain: T1 chain with Q20R, G22D, D23E, A53N, S55A, R78M, D80H, A81H, R83S, E84R
Summed up:
as §1

Data set [14] concerns the target T10, ZFP SBS#1085 (synthetic).
T10 chain: T1 chain with Q20R, G22D, D23E, A53N, S55A, R78Q, D80S, A81H, R83A, E84R
The gist of the method:
as §1

The target of data set [15] is T11, ZFP SBS#1121 (synthetic).
T11 chain: T1 chain with Q20E, S21R, S55T
The gist of the method:
as §1

Data set [16] concerns the target T12, ZFP SBS#1122 (synthetic).
T12 chain: T1 chain with Q20D, S21R, G22S, D23S, S55T
The gist of the method:
as §1

The target in data set [17] is ZFP SBS#1112 (synthetic). Summed up: as §1
Sequence of ZFP SBS#1112 (synthetic) (chain, as listed by the source): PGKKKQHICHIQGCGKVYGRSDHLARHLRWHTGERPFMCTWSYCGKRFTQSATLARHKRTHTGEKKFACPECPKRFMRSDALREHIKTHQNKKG
Data set [18] addresses T13, ZFP SBS#1111 (synthetic).
T13 chain: T1 chain with Q20R, G22D, D23H, T25A, R50Q, D52S, A53S, S55V
Summed up:
as §1

Data set [19] concerns the target T14, ZFP SBS#1120 (synthetic).
T14 chain: T2 chain with D20R, R21S, S22D, A23E, Q50D, A52S, H53N, E55T, N81H, T84Q
Summed up:
as §1

Data set [20] has as its target ZFP SBS#1103 (synthetic). Summed up: as §1
Data set [21] concerns the target T15, ZFP SBS#1102 (synthetic).
T15 chain: T8 chain with D50Q, C51S, R52G, D53S, A55T, A83T, R84Q
Summed up:
as §1

For data set [22], the target named is T16, ZFP SBS#1087 (synthetic, UniProt P08047).
T16 chain: T1 chain with Q20E, S21R, A53E, S55Q, A81H, R83A
Summed up:
as §1

The target of data set [23] is T17, ZFP SBS#1088 (synthetic, UniProt P08047).
T17 chain: T1 chain with Q20E, S21R, A53E, S55Q, A81H
Summed up: as §1

In data set [24] the target is ZFP SBS#1123 (synthetic). The gist of the method: as §1
Sequence of ZFP SBS#1123 (synthetic) (chain, as listed by the source): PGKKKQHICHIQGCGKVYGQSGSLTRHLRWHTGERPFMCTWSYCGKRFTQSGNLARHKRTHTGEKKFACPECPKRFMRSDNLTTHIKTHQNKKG
The target in data set [25] is T18, ZFP SBS#1110 (synthetic).
T18 chain: T2 chain with A23S, N81H, T84Q
The gist of the method: as §1

In data set [26] the target is T19, ZFP SBS#1109 (synthetic).
T19 chain: T2 chain with D20E, S22G, A23D, N81H, T84Q
The gist of the method:
as §1

Data set [27] deals with ZFP SBS#467 (synthetic). The gist of the method: as §1
Sequence of ZFP SBS#467 (synthetic) (chain, as listed by the source): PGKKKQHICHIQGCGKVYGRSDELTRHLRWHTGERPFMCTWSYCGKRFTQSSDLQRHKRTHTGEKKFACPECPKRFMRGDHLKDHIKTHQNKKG
Data set [28] addresses ZFP SBS#468 (synthetic). The gist of the method: as §1
Data set [29] concerns the target ZFP SBS#466 (synthetic). The gist of the method: as §1
Data set [30] concerns the target ZFP SBS#1113 (synthetic). Summed up: as §1
In data set [31] the target is T20, ZFP SBS#1095 (synthetic).
T20 chain: T2 chain with D20E, S22G, A23D, N81H, T83S, T84R
The gist of the method:
as §1

For data set [32], the target named is T21, ZFP SBS#1096 (synthetic).
T21 chain: T2 chain with A23S, N81H, T83S, T84R
Summed up:
as §1

Sequence of ZFP SBS#1106 (synthetic) (chain, as listed by the source): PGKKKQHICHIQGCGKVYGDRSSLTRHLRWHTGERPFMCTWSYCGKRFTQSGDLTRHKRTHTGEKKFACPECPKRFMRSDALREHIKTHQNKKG
Sequence of ZFP SBS#1103 (synthetic) (chain, as listed by the source): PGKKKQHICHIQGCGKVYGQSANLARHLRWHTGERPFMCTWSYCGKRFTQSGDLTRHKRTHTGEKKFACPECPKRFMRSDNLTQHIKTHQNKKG
Sequence of ZFP SBS#466 (synthetic) (chain, as listed by the source): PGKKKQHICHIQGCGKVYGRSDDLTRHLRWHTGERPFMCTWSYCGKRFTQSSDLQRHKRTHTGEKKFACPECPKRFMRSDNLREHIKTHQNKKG
Sequence of ZFP SBS#468 (synthetic) (chain, as listed by the source): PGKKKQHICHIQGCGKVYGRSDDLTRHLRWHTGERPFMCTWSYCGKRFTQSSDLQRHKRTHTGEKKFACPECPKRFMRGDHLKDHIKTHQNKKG
Sequence of ZFP SBS#1115 (synthetic) (chain, as listed by the source): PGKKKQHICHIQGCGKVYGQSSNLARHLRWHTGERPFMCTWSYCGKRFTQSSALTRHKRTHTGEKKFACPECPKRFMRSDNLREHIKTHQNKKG
Sequence of ZFP SBS#1105 (synthetic) (chain, as listed by the source): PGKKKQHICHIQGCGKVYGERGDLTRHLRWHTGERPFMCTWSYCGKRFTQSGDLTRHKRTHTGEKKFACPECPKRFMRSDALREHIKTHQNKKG

B1: GGGGCTCGG (dsDNA)
DNA 1: GGGGCTCGG
DNA 2: CCGAGCCCC
With B1, in [1], binding was put at a Kd of 100 pM.

B2: CTGGTGGCA (dsDNA)
DNA 1: CTGGTGGCA
DNA 2: TGCCACCAG
For B2, in [2], the Kd came to 152 pM.

B3: TAGGGAGTC (dsDNA)
DNA 1: TAGGGAGTC
DNA 2: GACTCCCTA
The molecule B3 came in with an equilibrium dissociation constant (Kd) in data set [3] of 1400 pM.

B4: GACGAGGCT (dsDNA)
DNA 1: GACGAGGCT
DNA 2: AGCCTCGTC
Molecule B4 yielded a Kd in data set [4] of 171 pM. This lies in the sub-nanomolar range.

B5: GCGGTTGGT (dsDNA)
DNA 1: GCGGTTGGT
DNA 2: ACCAACCGC
Consider B5, for which binding in data set [5] was put at a Kd of 12300 pM.

B6: TGGGAGGGT (dsDNA)
DNA 1: TGGGAGGGT
DNA 2: ACCCTCCCA
In [6], B6 returned an equilibrium dissociation constant (Kd) of 100 pM.

B7: GAAGAGGTCT (dsDNA)
DNA 1: GAAGAGGTCT
DNA 2: AGACCTCTTC
B7: the affinity in [7], expressed as Kd, was 13500 pM. This counts as double-digit nanomolar.

B8: CAGGTTGAT (dsDNA)
DNA 1: CAGGTTGAT
DNA 2: ATCAACCTG
Turning to B8, the results for the Kd in [8] and in data set [9] were 700 pM and 2750 pM, respectively.

B9: CTGGCAGCC (dsDNA)
DNA 1: CTGGCAGCC
DNA 2: GGCTGCCAG
As to B9, the Kd in data set [10] was determined as 2450 pM; in [11] it was 190 pM.

B10: GAGGCCGAA (dsDNA)
DNA 1: GAGGCCGAA
DNA 2: TTCGGCCTC
Consider B10, for which binding in data set [12] was put at a Kd of 770 pM.

B11: GGTGAGGCG (dsDNA)
DNA 1: GGTGAGGCG
DNA 2: CGCCTCACC
B11: the Kd in data set [13] amounted to 500 pM; in [14], 460 pM.

B12: CTGGTGGCC (dsDNA)
DNA 1: CTGGTGGCC
DNA 2: GGCCACCAG
For the molecule B12, the Kd came to 2760 pM in [15] and 101 pM in data set [16].

B13: CTGGTAGGG (dsDNA)
DNA 1: CTGGTAGGG
DNA 2: CCCTACCAG
For B13, the Kd in data set [17] is 125 pM; in data set [18], 95 pM.

B14: AGGGACGCG (dsDNA)
DNA 1: AGGGACGCG
DNA 2: CGCGTCCCT
Molecule B14 returned a Kd in data set [19] of 2740 pM.

B15: AAGGCAGAA (dsDNA)
DNA 1: AAGGCAGAA
DNA 2: TTCTGCCTT
In the case of B15, the Kd in [20] worked out at 1400 pM; in data set [21] it was 8150 pM.

B16: CGGGCGGCC (dsDNA)
DNA 1: CGGGCGGCC
DNA 2: GGCCGCCCG
B16: the values for the Kd in data set [22] and in data set [23] were 1240 pM and 905 pM, respectively.

B17: TAGGAAGCA (dsDNA)
DNA 1: TAGGAAGCA
DNA 2: TGCTTCCTA
In [24], B17 came in with a dissociation constant (Kd) of 65 pM.

B18: AGGGGAGCC (dsDNA)
DNA 1: AGGGGAGCC
DNA 2: GGCTCCCCT
For B18, the values for the Kd in data set [25] and in [26] were 95 pM and 347 pM, respectively.

B19: CAGGCTGCGC (dsDNA)
DNA 1: CAGGCTGCGC
DNA 2: GCGCAGCCTG
As for B19, the Kd worked out at 800000 pM in [27], 42000 pM in [28] and 65000 pM in data set [29].

B20: CTGGGGGCA (dsDNA)
DNA 1: CTGGGGGCA
DNA 2: TGCCCCCAG
B20 displayed a Kd in [30] of 60 pM.

B21: GGGGGAGCC (dsDNA)
DNA 1: GGGGGAGCC
DNA 2: GGCTCCCCC
For the molecule B21, the Kd amounted to 395 pM in data set [31] and 19 pM in [32].
